Measurements as given in the RNAGym collection of RNA variant scans (doi:10.1093/molbev/msab373).

B1: Azoarcus group I ribozyme (parent)
chain: GUGCCUUGCGCCGGGAAACCACGCAAGGGAUGGUGUCAAAUUCGGCGAAACCUAAGCGCCCGCCCGGGCGUAUGGCAACGCCGAGCCAAGCUUCGGCGCCUGCGCCGAUGAAGGUGUAGAGACUAGACGGCACCCACCUAAGGCAAACGCUAUGGUGAAGGCAUAGUCCAGGGAGUGGCGAAAGUCACACAAACCGG

Variants of: B1
Test: reverse-splicing fitness (ratio to wild type); higher = more active; in vitro selection; Mg2+ level not given
Outline: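 An in vitro group I ribozyme library with randomized positions was T7-transcribed and gel-purified. In triplicate, 10 pmol RNA in EPPS pH 7.5 was reacted with 50 pmoles of a 30-nt RNA substrate for 1 h at 37 °C across several added MgCl2 levels (1–48 mM), then stopped with EDTA. Products were reverse transcribed from a substrate-complementary primer, PCR-amplified and sequenced (HiSeq 4000). Fitness is a variant's read proportion after selection over that before, normalised to wild type.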

Row | Variant | reverse-splicing fitness
1 | C82U C169G U176C | 0.0184
2 | C82U C169G U176G | 0.00406
3 | C82U C169U | 0.0149
4 | C82U C169U U176A | 0.0123
5 | C82U C169U U176C | 0.0155
6 | C82U C169U U176G | 0.00445
7 | C82U U176A | 0.386
8 | C82U U176C | 0.476
9 | C82U U176G | 0.126
10 | A111C | 0.872
11 | A111C A120C | 0.576
12 | A111C A120C A145C | 0.556
13 | A111C A120C A145C C150A | 0.0308
14 | A111C A120C A145C C150A C169A | 0.00839
15 | A111C A120C A145C C150A C169A U176A | 0.0152
16 | A111C A120C A145C C150A C169A U176C | 0.00638
17 | A111C A120C A145C C150A C169A U176G | 0.00655
18 | A111C A120C A145C C150A C169G | 0.0073
19 | A111C A120C A145C C150A C169G U176A | 0.0246
20 | A111C A120C A145C C150A C169G U176C | 0.0146
21 | A111C A120C A145C C150A C169G U176G | 0.007

Row | Variant | reverse-splicing fitness
22 | A111C A120C A145C C150A C169U | 0.0161
23 | A111C A120C A145C C150A C169U U176A | 0.0155
24 | A111C A120C A145C C150A C169U U176C | 0.0108
25 | A111C A120C A145C C150A C169U U176G | 0.00564
26 | A111C A120C A145C C150A U176A | 0.0203
27 | A111C A120C A145C C150A U176C | 0.0293
28 | A111C A120C A145C C150A U176G | 0.0084
29 | A111C A120C A145C C150G | 0.0702
30 | A111C A120C A145C C150G C169A | 0.00813
31 | A111C A120C A145C C150G C169A U176A | 0.0076
32 | A111C A120C A145C C150G C169A U176C | 0.00793
33 | A111C A120C A145C C150G C169A U176G | 0.00595
34 | A111C A120C A145C C150G C169G | 0.0064
35 | A111C A120C A145C C150G C169G U176A | 0.00861
36 | A111C A120C A145C C150G C169G U176C | 0.00939
37 | A111C A120C A145C C150G C169G U176G | 0.00522
38 | A111C A120C A145C C150G C169U | 0.0267
39 | A111C A120C A145C C150G C169U U176A | 0.00995
40 | A111C A120C A145C C150G C169U U176C | 0.0163
41 | A111C A120C A145C C150G C169U U176G | 0.0054
42 | A111C A120C A145C C150G U176A | 0.0198

Row | Variant | reverse-splicing fitness
43 | A111C A120C A145C C150G U176C | 0.0391
44 | A111C A120C A145C C150G U176G | 0.00444
45 | A111C A120C A145C C150U | 0.175
46 | A111C A120C A145C C150U C169A | 0.00837
47 | A111C A120C A145C C150U C169A U176A | 0.0107
48 | A111C A120C A145C C150U C169A U176C | 0.005
49 | A111C A120C A145C C150U C169A U176G | 0.00703
50 | A111C A120C A145C C150U C169G | 0.00649
51 | A111C A120C A145C C150U C169G U176A | 0.0202
52 | A111C A120C A145C C150U C169G U176C | 0.0118
53 | A111C A120C A145C C150U C169G U176G | 0.00592
54 | A111C A120C A145C C150U C169U | 0.048
55 | A111C A120C A145C C150U C169U U176A | 0.0206
56 | A111C A120C A145C C150U C169U U176C | 0.0237
57 | A111C A120C A145C C150U C169U U176G | 0.00555
58 | A111C A120C A145C C150U U176A | 0.069
59 | A111C A120C A145C C150U U176C | 0.0914
60 | A111C A120C A145C C150U U176G | 0.0168
61 | A111C A120C A145C C169A | 0.00953
62 | A111C A120C A145C C169A U176A | 0.0126
63 | A111C A120C A145C C169A U176C | 0.00756

Row | Variant | reverse-splicing fitness
64 | A111C A120C A145C C169A U176G | 0.00493
65 | A111C A120C A145C C169G | 0.0105
66 | A111C A120C A145C C169G U176A | 0.0217
67 | A111C A120C A145C C169G U176C | 0.0167
68 | A111C A120C A145C C169G U176G | 0.00634
69 | A111C A120C A145C C169U | 0.17
70 | A111C A120C A145C C169U U176A | 0.0332
71 | A111C A120C A145C C169U U176C | 0.0413
72 | A111C A120C A145C C169U U176G | 0.006
73 | A111C A120C A145C U176A | 0.172
74 | A111C A120C A145C U176C | 0.197
75 | A111C A120C A145C U176G | 0.0513
76 | A111C A120C A145G | 0.614
77 | A111C A120C A145G C150A | 0.0979
78 | A111C A120C A145G C150A C169A | 0.0101
79 | A111C A120C A145G C150A C169A U176A | 0.0145
80 | A111C A120C A145G C150A C169A U176C | 0.0214
81 | A111C A120C A145G C150A C169A U176G | 0.00677
82 | A111C A120C A145G C150A C169G | 0.00782
83 | A111C A120C A145G C150A C169G U176A | 0.0148
84 | A111C A120C A145G C150A C169G U176C | 0.0253
